Laboratory results reported in publication PMC9958131 (Nature Communications, 2023).

B1: Galectin-3-binding protein (protein, UniProt Q08380 19-585, looked up)
Galectin-3-binding protein: VNDGDMRLADGGATNQGRVEIFYRGQWGTVCDNLWDLTDASVVCRALGFENATQALGRAAFGQGSGPIMLDEVQCTGTEASLADCKSLGWLKSNCRHERDAGVVCTNETRSTHTLDLSRELSEALGQIFDSQRGCDLSISVNVQGEDALGFCGHTVILTANLEAQALWKEPGSNVTMSVDAECVPMVRDLLRYFYSRRIDITLSSVKCFHKLASAYGARQLQGYCASLFAILLPQDPSFQMPLDLYAYAVATGDALLEKLCLQFLAWNFEALTQAEAWPSVPTDLLQLLLPRSDLAVPSELALLKAVDTWSWGERASHEEVEGLVEKIRFPMMLPEELFELQFNLSLYWSHEALFQKKTLQALEFHTVPFQLLARYKGLNLTEDTYKPRIYTSPTWSAFVTDSSWSARKSQLVYQSRRGPLVKYSSDYFQAPSDYRYYPYQSFQTPQHPSFLFQDKRVSWSLVYLPTIQSCWNYGFSCSSDELPVLGLTKSGGSDRTIAYENKALMLCEGLFVADVTDFEGWKAAIPSALDTNSSKSTSSFPCPAGHFNGFRTVIRPFYLTNSSGVD
B2: C9JEU5 (protein)
chain: MSWSLHPRNLILYFYALLFLSSTCVAYVATRDNCCILDERFGSYCPTTCGIADFLSTYQTKVDKDLQSLEDILHQVENKTSEVKQLIKAIQLTYNPDESSKPNMIDAATLKSRKMLEEIMKYEASILTHDSSIRYLQEIYNSNNQKIVNLKEKVAQLEAQCQEPCKDTVQIHDITGKVKVDSPSLDCQDIANKGAKQSGLYFIKPLKANQQFLVYCEIDGSGNGWTVFQKRLDGSVDFKKNWIQYKEGFGHLSPTGTTEFWLGNEKIHLISTQSAIPYALRVELEDWNGRTSTADYAMFKVGPEADKYRLTYAYFAGGDAGDAFDGFDFGDDPSDKFFTSHNGMQFSTWDNDNDKFEGNCAEQDGSGWWMNKCHAGHLNGVYYQGGTYSKASTPNGYDNGIIWATWKTRWYSMKKTTMKIIPFNRLTIGEGQQHHLGGAKQAGDV
B3: Interferon alpha-21 (protein, UniProt P01568 24-189, looked up)
Interferon alpha-21: CDLPQTHSLGNRRALILLAQMGRISPFSCLKDRHDFGFPQEEFDGNQFQKAQAISVLHEMIQQTFNLFSTKDSSATWEQSLLEKFSTELNQQLNDLEACVIQEVGVEETPLMNVDSILAVKKYFQRITLYLTEKKYSPCAWEVVRAEIMRSFSLSKIFQERLRRKE
B4: Keratin, type II cuticular Hb6 (protein, UniProt O43790 1-486, looked up)
Keratin, type II cuticular Hb6: MTCGSYCGGRAFSCISACGPRPGRCCITAAPYRGISCYRGLTGGFGSHSVCGGFRAGSCGRSFGYRSGGVCGPSPPCITTVSVNESLLTPLNLEIDPNAQCVKQEEKEQIKSLNSRFAAFIDKVRFLEQQNKLLETKLQFYQNRECCQSNLEPLFEGYIETLRREAECVEADSGRLASELNHVQEVLEGYKKKYEEEVSLRATAENEFVALKKDVDCAYLRKSDLEANVEALIQEIDFLRRLYEEEIRVLQSHISDTSVVVKLDNSRDLNMDCIIAEIKAQYDDIVTRSRAEAESWYRSKCEEMKATVIRHGETLRRTKEEINELNRMIQRLTAEVENAKCQNSKLEAAVAQSEQQGEAALSDARCKLAELEGALQKAKQDMACLIREYQEVMNSKLGLDIEIATYRRLLEGEEQRLCEGVGSVNVCVSSSRGGVVCGDLCASTTAPVVSTRVSSVPSNSNVVVGTTNACAPSARVGVCGGSCKRC
B5: Carboxypeptidase N subunit 2 (protein, UniProt P22792 22-545, looked up)
Carboxypeptidase N subunit 2: CPMGCDCFVQEVFCSDEELATVPLDIPPYTKNIIFVETSFTTLETRAFGSNPNLTKVVFLNTQLCQFRPDAFGGLPRLEDLEVTGSSFLNLSTNIFSNLTSLGKLTLNFNMLEALPEGLFQHLAALESLHLQGNQLQALPRRLFQPLTHLKTLNLAQNLLAQLPEELFHPLTSLQTLKLSNNALSGLPQGVFGKLGSLQELFLDSNNISELPPQVFSQLFCLERLWLQRNAITHLPLSIFASLGNLTFLSLQWNMLRVLPAGLFAHTPCLVGLSLTHNQLETVAEGTFAHLSNLRSLMLSYNAITHLPAGIFRDLEELVKLYLGSNNLTALHPALFQNLSKLELLSLSKNQLTTLPEGIFDTNYNLFNLALHGNPWQCDCHLAYLFNWLQQYTDRLLNIQTYCAGPAYLKGQVVPALNEKQLVCPVTRDHLGFQVTWPDESKAGGSWDLAVQERAARSQCTYSNPEGTVVLACDQAQCRWLNVQLSPQQGSLGLQYNASQEWDLRSSCGSLRLTVSIEARAAGP
B6: Fibrinogen a: α chain of human fibrinogen (Cayman Chemical), RA autoantigen; native or citrullinated by PAD2 or PAD4 (protein)
chain: MFSMRIVCLVLSVVGTAWTADSGEGDFLAEGGGVRGPRVVERHQSACKDSDWPFCSDEDWNYKCPSGCRMKGLIDEVNQDFTNRINKLKNSLFEYQKNNKDSHSLTTNIMEILRGDFSSANNRDNTYNRVSEDLRSRIEVLKRKVIEKVQHIQLLQKNVRAQLVDMKRLEVDIDIKIRSCRGSCSRALAREVDLKDYEDQQKQLEQVIAKDLLPSRDRQHLPLIKMKPVPDLVPGNFKSQLQKVPPEWKALTDMPQMRMELERPGGNEITRGGSTSYGTGSETESPRNPSSAGSWNSGSSGPGSTGNRNPGSSGTGGTATWKPGSSGPGSTGSWNSGSSGTGSTGNQNPGSPRPGSTGTWNPGSSERGSAGHWTSESSVSGSTGQWHSESGSFRPDSPGSGNARPNNPDWGTFEEVSGNVSPGTRREYHTEKLVTSKGDKELRTGKEKVTSGSTTTTRRSCSKTVTKTVIGPDGHKEVTKEVVTSEDGSDCPEAMDLGTL
B7: Angiotensinogen (protein, UniProt P01019 25-476, looked up)
Angiotensinogen: DRVYIHPFHLVIHNESTCEQLAKANAGKPKDPTFIPAPIQAKTSPVDEKALQDQLVLVAAKLDTEDKLRAAMVGMLANFLGFRIYGMHSELWGVVHGATVLSPTAVFGTLASLYLGALDHTADRLQAILGVPWKDKNCTSRLDAHKVLSALQAVQGLLVAQGRADSQAQLLLSTVVGVFTAPGLHLKQPFVQGLALYTPVVLPRSLDFTELDVAAEKIDRFMQAVTGWKTGCSLMGASVDSTLAFNTYVHFQGKMKGFSLLAEPQEFWVDNSTSVSVPMLSGMGTFQHWSDIQDNFSVTQVPFTESACLLLIQPHYASDLDKVEGLTFQQNSLNWMKKLSPRTIHLTMPQLVLQGSYDLQDLLAQAELPAILHTELNLQKLSNDRIRVGEVLNSIFFELEADEREPTESTQQLNKPEVLEVTLNRPFLFAVYDQSATALHFLGRVANPLSTA
B8: Keratin, type II cuticular Hb5 (protein, UniProt P78386 1-507, looked up)
Keratin, type II cuticular Hb5: MSCRSYRISSGCGVTRNFSSCSAVAPKTGNRCCISAAPYRGVSCYRGLTGFGSRSLCNLGSCGPRIAVGGFRAGSCGRSFGYRSGGVCGPSPPCITTVSVNESLLTPLNLEIDPNAQCVKQEEKEQIKSLNSRFAAFIDKVRFLEQQNKLLETKWQFYQNQRCCESNLEPLFSGYIETLRREAECVEADSGRLASELNHVQEVLEGYKKKYEEEVALRATAENEFVVLKKDVDCAYLRKSDLEANVEALVEESSFLRRLYEEEIRVLQAHISDTSVIVKMDNSRDLNMDCIIAEIKAQYDDVASRSRAEAESWYRSKCEEMKATVIRHGETLRRTKEEINELNRMIQRLTAEIENAKCQRAKLEAAVAEAEQQGEAALSDARCKLAELEGALQKAKQDMACLLKEYQEVMNSKLGLDIEIATYRRLLEGEEHRLCEGVGSVNVCVSSSRGGVSCGGLSYSTTPGRQITSGPSAIGGSITVVAPDSCAPCQPRSSSFSCGSSRSVRFA
B9: Complement factor H-related protein 5 (protein, UniProt Q9BXR6 19-569, looked up)
Complement factor H-related …: EGTLCDFPKIHHGFLYDEEDYNPFSQVPTGEVFYYSCEYNFVSPSKSFWTRITCTEEGWSPTPKCLRMCSFPFVKNGHSESSGLIHLEGDTVQIICNTGYSLQNNEKNISCVERGWSTPPICSFTKGECHVPILEANVDAQPKKESYKVGDVLKFSCRKNLIRVGSDSVQCYQFGWSPNFPTCKGQVRSCGPPPQLSNGEVKEIRKEEYGHNEVVEYDCNPNFIINGPKKIQCVDGEWTTLPTCVEQVKTCGYIPELEYGYVQPSVPPYQHGVSVEVNCRNEYAMIGNNMITCINGIWTELPMCVATHQLKRCKIAGVNIKTLLKLSGKEFNHNSRIRYRCSDIFRYRHSVCINGKWNPEVDCTEKREQFCPPPPQIPNAQNMTTTVNYQDGEKVAVLCKENYLLPEAKEIVCKDGRWQSLPRCVESTAYCGPPPSINNGDTTSFPLSVYPPGSTVTYRCQSFYKLQGSVTVTCRNKQWSEPPRCLDPCVVSEENMNKNNIQLKWRNDGKLYAKTGDAVEFQCKFPHKAMISSPPFRAICQEGKFEYPICE
B10: P03971 (protein, UniProt P03971 1-560, looked up)
chain: MRDLPLTSLALVLSALGALLGTEALRAEEPAVGTSGLIFREDLDWPPGSPQEPLCLVALGGDSNGSSSPLRVVGALSAYEQAFLGAVQRARWGPRDLATFGVCNTGDRQAALPSLRRLGAWLRDPGGQRLVVLHLEEVTWEPTPSLRFQEPPPGGAGPPELALLVLYPGPGPEVTVTRAGLPGAQSLCPSRDTRYLVLAVDRPAGAWRGSGLALTLQPRGEDSRLSTARLQALLFGDDHRCFTRMTPALLLLPRSEPAPLPAHGQLDTVPFPPPRPSAELEESPPSADPFLETLTRLVRALRVPPARASAPRLALDPDALAGFPQGLVNLSDPAALERLLDGEEPLLLLLRPTAATTGDPAPLHDPTSAPWATALARRVAAELQAAAAELRSLPGLPPATAPLLARLLALCPGGPGGLGDPLRALLLLKALQGLRVEWRGRDPRGPGRAQRSAGATAADGPCALRELSVDLRAERSVLIPETYQANNCQGVCGWPQSDRNPRYGNHVVLLLKMQVRGAALARPPCCVPTAYAGKLLISLSEERISAHHVPNMVATECGCR
modifications: full-length

How the values were obtained:
[1] = test system: recombinant human PAD2 and PAD4; experiment: Citrullination site mapping by trypsin digestion and mass spectrometry; protein-level modifications over native, PAD2- and PAD4-citrullinated samples combined; type: biochemical; conditions: trypsin digest, Sequest HT search; co-identified proteins in the fibrinogen and vimentin samples (native, PAD2-cit, PAD4-cit); not split by sample or enzyme
Excerpt: (§1) Description: Raw mass spectrometry data for proteolytic mapping of fibrinogen, vimentin, and hnRNP A2/B1 by cathepsins B, S, and H (sheets 1-6); citrullination site mapping of fibrinogen and vimentin by trypsin digestion (sheets 7-8); and the natural antigen processing assay with native, PAD2-citrullinated (PAD2-cit), and PAD4-citrullinated (PAD4-cit) fibrinogen (sheets 9-11).

[2] = test system: PAD2 and PAD4; experiment: Citrullination site mapping of fibrinogen and vimentin by trypsin digestion and mass spectrometry (protein-level sheet, one search over native, PAD2-cit and PAD4-cit samples); type: biochemical, human; conditions: modified residues found per protein; Deamidated [R..] = deamidated (citrullinated) arginine positions; trypsin digest, Sequest HT; not split by sample (native, PAD2-citrullinated, PAD4-citrullinated fibrinogen and vimentin)
Excerpt: as §1

Molecule	Modifications (Deamidated [R...] = citrullinated arginine positions found) [1]	Modifications [2]
B1	Deamidated [R63; R426; R435; R436; R570]	–
B2	–	Deamidated [R113; R134; R281; R290; R309; R409; R425]
B3	Deamidated [R56]	–
B4	Deamidated [R125]	–
B5	Deamidated [R89; R449]	–
B6	–	Deamidated [R42; R84; R114; R123; R129; R160; R216; R218; R258; R263; R271; R287; R308; R510; R512; R547; R573; R591]
B7	Deamidated [R237]	–
B8	Deamidated [R142]	–
B9	Deamidated [R69]	–
B10	–	Deamidated [R499; R516; R522; R560]
